From patent US7598032B2, “Thermostable DNA polymerases incorporating nucleoside triphosphates labeled with fluorescent dyes” (Roche Molecular Systems, priority 1997, dated 2009)

Columns and labels:
[1] = system: M13 mp18 single-strand DNA template; assay: Cycle sequencing with fluorescein labeled ddNTPs (dye-terminator sequencing); type: biochemical
Method: The fluorescein dye labeled dideoxy terminators are reagents from the Applied Biosystems PRISM Sequenase® Terminator Sequencing Kits (Perkin-Elmer, Norwalk, Conn.) and were optimized for use with Sequenase DNA polymerase and alpha-thio dNTPs. Cycle sequencing reactions were performed in a 20 μl volume containing 50 mM Tris-HCl (pH 8.8), 2.0 mM MgCl2, 100 μM each dATP, dCTP, and dTTP (Perkin-Elmer, Norwalk, Conn.), 500 μM dITP (Pharmacia Biotech, Piscataway, N.J.), 0.2 μM13 mp18 single-strand DNA template (Perkin-Elmer), 0.15 μM LacZ Forward Primer (Perkin-Elmer), 5 units of G46D F667Y E681K Taq DNA polymerase, 20 units of rTth Thermostable Pyrophosphatase (U.S. Ser. No. 08/528,384), 0.05 μM Sequenase A Dye Terminator, 0.80 μM Sequenase C Dye Terminator, 0.08 μM Sequenase G Dye Terminator, and 1.0 μM Sequenase T Dye Terminator. All four Sequenase Dye Terminators were purchased from Perkin-Elmer. Reactions were placed in a preheated (75° C.) Perkin-Elmer GeneAmp® PCR System 9600 thermal cycler and subjected to 25 cycles of 96° C. for 10 seconds, 50° C. for 5 seconds, and 60° C. for 4 minutes. Dye labeled fragments were purified with Centri-Sep™ columns (Princeton Separations, Adelphia, N.J.) following the manufacturer's instructions and dried in a vacuum centrifuge. Pellets were resuspended in 6 μl of deionized formamide:50 mg/mL Blue dextran (in 25 mM EDTA, pH 8.0) 5:1 (v/v), heated at 90° C. for 3 minutes, and directly loaded onto a pre-electrophoresed 4% polyacrylamide/6 M urea gel and electrophoresed and analyzed on a Perkin-Elmer ABI PRISM' 377 DNA Sequencer according to the manufacturer instructions (ABI PRISM 377 DNA Sequencer User's Manual).

[2] = system: primer annealed to an M13 template; assay: Extension rate assay; type: biochemical; settings: for extension rate, Base Pairs/Sec: 75° C
Method: The extension rate of G46D F667Y Taq and G46D F667Y E681K Taq were determined using an extension rate assay. In this experiment, the enzymes were used to extend a primer annealed to an M13 template in the presence of [α-^33P]dCTP. The extension reactions were denatured and the products analyzed by denaturing agarose gel electrophoresis.
The assay was performed as previously described (Lawyer et al., 1989, J. Biol. Chem. 264:6427) including the following modifications. The assay mixture was composed so the final concentration was 50 mM Bicine pH 8.3, 25° C., 2.5 mM MgCl2, 1 mM β-mercaptoethanol, 200 μM each of dATP, dGTP and dTTP (Perkin-Elmer), 100 μM dCTP (Perkin-Elmer) containing [α-^33P]dCTP (New England Nuclear, Boston, Mass.). M13 mp18 (Perkin-Elmer) was annealed to primer DG48, (SEQ ID NO: 11), and the equivalent of 0.085 pmoles of the annealed template was added to the assay mixture for each reaction. Forty-five μl of the assay mixture with template DNA was added to each of fourteen 0.5 ml eppendorf tubes. Each tube was preincubated at 75° C. for at least 30 seconds before the start of the polymerase reaction.
Polymerization was initiated in six of the fourteen assay tubes with 5 μl of G46D F667Y Taq DNA polymerase (2.5 units) or G46D F667Y E681K Taq DNA polymerase (1.25 units). Both enzymes were prepared as in Example I and the concentration used represents a predetermined excess amount of enzyme for the amount of substrate in the assay. As a control for the level of background, the remaining negative control was initiated with enzyme dilution buffer rather than polymerase. All reaction tubes were immediately vortexed briefly and incubated at 75° C. Two of the six tubes containing G46D F667Y Taq DNA polymerase were incubated 3 minutes, two for 6 minutes and two for 10 minutes. Similarly, two of the tubes started with G46D F667Y E681K Taq DNA polymerase were incubated for 30 seconds, two for 1 minute and two for 2 minutes. The control tubes were incubated for 3 minutes. The reactions were stopped by addition of 10 μl 60 mM EDTA and stored at 0° C.
For each reaction, a 25 μl aliquot of the 60 μl reaction was diluted with 1 ml 2 mM EDTA, 50 μg/ml sheared salmon sperm DNA as a carrier. The DNA was precipitated with TCA using standard procedures and collected on GF/C filter discs (Whatman). The amount of incorporated [α-^33P]dCMP was determined for each sample.
The remaining 35 μl of each duplicated were combined and the 70 μl sample was ethanol precipitated, dried and resuspended in 50 mM NaOH, 1 mM EDTA. Aliquots were removed from these samples such that an equal number of α-^33P] counts were taken from each. These aliquots were loaded on an 0.9% alkaline agarose gel, electrophoresed, dried and autoradiographed as previously described (Maniatis et al., 1982, In Molecular Cloning: A Laboratory Manual, Cold Spring Harbor Laboratory, Cold Spring Harbor, N.Y.) Bacteriophage lambda DNA cut with restriction enzyme HindIII (BRL) and 5′ end-labeled with [^32P] was used as a molecular weight standard.
The length in base pairs of the extension product in each sample was determined by comparison of the migration distance of each sample with the distance migrated by the lambda DNA size standard. The number of base pairs in each product was divided by the number of seconds each extension reaction incubated to give the extension rate as shown below.

B1: G46D F667Y E681K Taq: thermostable Taq DNA polymerase with G46D, F667Y and E681K mutations, encoded by plasmid pLK113 (protein, UniProt P19821 1-832, looked up, variant G46D F667Y E681K)
DNA polymerase I, thermostable: MRGMLPLFEPKGRVLLVDGHHLAYRTFHALKGLTTSRGEPVQAVYDFAKSLLKALKEDGDAVIVVFDAKAPSFRHEAYGGYKAGRAPTPEDFPRQLALIKELVDLLGLARLEVPGYEADDVLASLAKKAEKEGYEVRILTADKDLYQLLSDRIHVLHPEGYLITPAWLWEKYGLRPDQWADYRALTGDESDNLPGVKGIGEKTARKLLEEWGSLEALLKNLDRLKPAIREKILAHMDDLKLSWDLAKVRTDLPLEVDFAKRREPDRERLRAFLERLEFGSLLHEFGLLESPKALEEAPWPPPEGAFVGFVLSRKEPMWADLLALAAARGGRVHRAPEPYKALRDLKEARGLLAKDLSVLALREGLGLPPGDDPMLLAYLLDPSNTTPEGVARRYGGEWTEEAGERAALSERLFANLWGRLEGEERLLWLYREVERPLSAVLAHMEATGVRLDVAYLRALSLEVAEEIARLEAEVFRLAGHPFNLNSRDQLERVLFDELGLPAIGKTEKTGKRSTSAAVLEALREAHPIVEKILQYRELTKLKSTYIDPLPDLIHPRTGRLHTRFNQTATATGRLSSSDPNLQNIPVRTPLGQRIRRAFIAEEGWLLVALDYSQIELRVLAHLSGDENLIRVFQEGRDIHTETASWMFGVPREAVDPLMRRAAKTINYGVLYGMSAHRLSQKLAIPYEEAQAFIERYFQSFPKVRAWIEKTLEEGRRRGYVETLFGRRRYVPDLEARVKSVREAAERMAFNMPVQGTAADLMKLAMVKLFPRLEEMGARMLLQVHDELVLEAPKERAEAVARLAKEVMEGVYPLAVPLEVEVGIGEDWLSAKE
accuracy of automated base-calling ([1]; for 450 bases, ABI PRISM 377 DNA Sequencer, 1 μM or less ddNTP): greater than 98.5%
base-calling errors ([1]; for bases +10 to +460 from primer): 6 errors
sequencing ladder with fluorescein dye family-labeled ddNTPs ([1]; sequencing reaction with fluorescein dye family-labeled ddNTPs): readable sequencing ladder
extension rate, Base Pairs/Sec ([2]; Time 30 sec.): 36.7 Base Pairs/Sec
extension rate, Base Pairs/Sec ([2]; Time 1 min.): 41.7 Base Pairs/Sec
extension rate, Base Pairs/Sec ([2]; Time 2 min): 52.9 Base Pairs/Sec
extension rate (in words) ([2]; relative to an enzyme with the F667Y mutation alone): significantly increased extension rate
